Values quoted from earlier work, collected in paper PMC4317646.

Target: ADP-G-actin (Saccharomyces cerevisiae) (UniProt P60010)

C-Srv2 C-terminal half, sequence (P17555 253-526): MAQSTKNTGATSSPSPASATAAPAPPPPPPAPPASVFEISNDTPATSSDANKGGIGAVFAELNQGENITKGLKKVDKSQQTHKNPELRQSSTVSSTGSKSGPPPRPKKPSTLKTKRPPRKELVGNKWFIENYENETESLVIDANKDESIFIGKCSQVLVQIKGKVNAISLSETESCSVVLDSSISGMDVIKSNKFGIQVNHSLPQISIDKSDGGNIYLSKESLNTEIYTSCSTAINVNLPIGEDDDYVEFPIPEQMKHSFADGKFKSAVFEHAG

## C-Srv2 C-terminal half (from UniProt P17555)
  Kd: 18 nM
